Laboratory results as given in US20190359723A1 (CARSGEN THERAPEUTICS, published 2019).

T1: IL-13RA2 endogenously expressed on U251 cells (human, UniProt Q14627 27-380)
T1 construct: whole, on cells; also called U251 cells expressing IL13RA2; U251 (IL-13RA2-positive)
T1 sequence (looked up): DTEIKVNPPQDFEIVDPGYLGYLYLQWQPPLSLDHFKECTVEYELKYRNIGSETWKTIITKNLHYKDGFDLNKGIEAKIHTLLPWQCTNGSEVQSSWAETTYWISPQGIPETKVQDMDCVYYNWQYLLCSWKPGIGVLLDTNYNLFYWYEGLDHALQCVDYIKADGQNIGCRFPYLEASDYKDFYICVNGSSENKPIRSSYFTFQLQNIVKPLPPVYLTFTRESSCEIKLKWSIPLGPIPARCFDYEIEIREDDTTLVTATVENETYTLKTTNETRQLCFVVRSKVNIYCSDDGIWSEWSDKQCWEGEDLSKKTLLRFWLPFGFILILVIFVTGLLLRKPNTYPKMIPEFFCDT


Assays:
IL-13RA2 huFc [1] = target: T2, IL-13RA2 huFc (human); experiment: SPR (Biacore T200), ligand IL13Ra2 on the chip, scFv_Fc as analyte at 6.25 to 100 nM, 1:1 binding fit, flow 30 ul/min
T2 construct: Expressed in 293F cells, purified on protein A; also called human IL13RA2; recombinant IL-13RA2
Experimental: (§1) IL-13RA2 huFc was coated on the CMS chip by amino coupling, coated to about 500 RU, and the gradiently diluted antibodies were passed through the antigen-coated channel at a flow rate of 30 ul/min as a mobile phase. The running buffer was HBS-N and the temperature was 25° C. The experimental data was analyzed by BIAevaluation 3.2 and the kinetic curves were fitted using a 1:1 langmuir model.
(§2) Affinity was determined using the method of Example 5 using biacore T200, and the results are shown as in FIGS. 11B-11G. […] The association and dissociation constants of the antibodies are shown as in FIG. 11F.
Target sequence in this assay (chain, as listed by the source limits assumed): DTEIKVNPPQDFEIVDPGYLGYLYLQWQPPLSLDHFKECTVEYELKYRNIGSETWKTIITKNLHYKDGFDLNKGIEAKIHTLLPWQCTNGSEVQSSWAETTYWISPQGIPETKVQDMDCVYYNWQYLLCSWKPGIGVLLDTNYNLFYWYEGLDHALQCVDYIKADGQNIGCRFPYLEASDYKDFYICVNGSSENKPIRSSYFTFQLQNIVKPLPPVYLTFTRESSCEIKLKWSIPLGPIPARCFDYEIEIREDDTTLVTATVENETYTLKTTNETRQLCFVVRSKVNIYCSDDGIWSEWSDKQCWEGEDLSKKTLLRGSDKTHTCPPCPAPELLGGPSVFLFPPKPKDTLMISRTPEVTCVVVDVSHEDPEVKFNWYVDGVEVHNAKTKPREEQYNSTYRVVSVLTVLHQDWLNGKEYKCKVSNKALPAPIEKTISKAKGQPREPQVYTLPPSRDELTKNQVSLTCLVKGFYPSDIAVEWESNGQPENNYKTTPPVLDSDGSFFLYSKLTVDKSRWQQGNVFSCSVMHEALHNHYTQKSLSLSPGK

IL-13RA2 huFc [2] = target: T2, IL-13RA2 huFc; experiment: SPR (Biacore T200), scFv_Fc forms on IL-13RA2 huFc, summary table
Experimental: as §1, §2
Target sequence in this assay (chain, as listed by the source limits assumed): as above

[3] = target: T1, IL-13RA2 endogenously expressed on U251 …; experiment: flow cytometry on U251 cells, scFv_Fc form, 5-fold dilutions from 2,000 nM, FITC anti-human IgG
Experimental: Following the method of Example 6, cells were harvested, washed once with a growth medium, and resuspended in PBS, and the cell concentration was adjusted to 4E+5 cells/ml. The gradiently diluted scFv_Fc fusion antibody was incubated with the cells for 30 minutes on ice, and the antibody was 5-fold serially diluted with 2,000 nM as the initial concentration, into 11 gradients. Then the mixture was incubated with a FITC-labeled anti-human IgG secondary antibody. After two washing steps, detection was performed using a Guava easyCyte™ HT System instrument. […] There is also a 2-8 fold increase compared with the parent antibody.

IL-13RA2 huFc [4] = target: T2, IL-13RA2 huFc; experiment: Biacore, induced supernatant of the scFv clone; parent 31C2
Target sequence in this assay (chain, as listed by the source limits assumed): as above

IL-13RA2 huFc [5] = target: T2, IL-13RA2 huFc; experiment: SPR (Biacore T200), nickel-purified scFv
Experimental: as §1
Target sequence in this assay (chain, as listed by the source limits assumed): as above
Affinity purification was performed using a nickel column, affinity was measured using biacore T200, and the association and dissociation constants of the affinity matured antibodies are shown as in FIG. 10A.

IL-13RA2 huFc [6] = target: T2, IL-13RA2 huFc; experiment: SPR (Biacore), induced scFv supernatant; column head: Dissociation constant Kd(S-1)
Target sequence in this assay (chain, as listed by the source limits assumed): as above

IL-13RA2 huFc [7] = target: T2, IL-13RA2 huFc; experiment: SPR (Biacore T200), ligand IL13Ra2 on the chip, scFv_Fc as analyte at 100, 50, 25 and 6.25 nM, 1:1 binding fit, flow 30 ul/min
Experimental: as §1, §2

| Binder | Kd (IL-13RA2 huFc [1]) [nM] | koff (IL-13RA2 huFc [1]) [s⁻¹] | kon (IL-13RA2 huFc [1]) [M⁻¹ s⁻¹] | Kd (IL-13RA2 huFc [2]) [nM] | koff (IL-13RA2 huFc [2]) [s⁻¹] | kon (IL-13RA2 huFc [2]) [M⁻¹ s⁻¹] | EC50 [3] [nM] | fold lower dissociation constant Kd than the parent clone (IL-13RA2 huFc [4]) [times] | Kd (IL-13RA2 huFc [5]) [nM] | koff (IL-13RA2 huFc [5]) [s⁻¹] | kon (IL-13RA2 huFc [5]) [M⁻¹ s⁻¹] | koff (IL-13RA2 huFc [6]) [s⁻¹] | Kd (IL-13RA2 huFc [7]) [nM] | koff (IL-13RA2 huFc [7]) [s⁻¹] | kon (IL-13RA2 huFc [7]) [M⁻¹ s⁻¹] |
| --- | --- | --- | --- | --- | --- | --- | --- | --- | --- | --- | --- | --- | --- | --- | --- |
| 1B11 (scFv_Fc form) (Fc fusion, not shown: human Fc segment of the eukaryotic expression vector V152) scFv: EVQLLESGGGLVQPGGSLRLSCAASGFTFSRDALNWVRQAPGKGLEWVSAISGSGGSTFYADSVKGRFTISRDNSKNTLYLQMNSLRAEDTAVYYCAKVRYGWGAGAFDYWGQGTLVTVSSGGGGSGGGGSGGGGSDIQMTQSPSTLSASVGDRVTITCRASQSISSWLAWYQQKPGKAPKLLIYDASSLESGVPSRFSGSGSGTEFTLTISSLQPDDFATYYCQQYDTYPPITFGQGTKVEIK | 1.04 | 0.000263 | 252000 | 1.04 | 0.000263 | 253000 | 0.47 | – | – | – | – | – | – | – | – |
| 1D11 (scFv) (scFv, also called clone 1D11) scFv: EVQLLESGGGLVQPGGSLRLSCAASGFTFGTIPMSWVRQAPGKGLEWVSSISGSAGSTYYADSVKGRFTISRDNSKNTLYLQMNSLRAEDTAVYYCAKVRYGWGAGAFDYWGQGTLVTVSSGGGGSGGGGSGGGGSDIQMTQSPSTLSASVGDRVTITCRASQSISSWLAWYQQKPGKAPKLLIYDASSLESGVPSRFSGSGSGTEFTLTISSLQPDDFATYYCQQYDTYPPITFGQGTKVEIK | – | – | – | – | – | – | – | > 10 | 9.89 | 0.000386 | 39000 | 0.000677 | – | – | – |
| 2A5 (scFv) (scFv, also called clone 2A5) scFv: EVQLLESGGGLVQPGGSLRLSCAASGFTFSRYAMNWVRQAPGKGLEWVSAISASGGGTYYADSVKGRFTISRDNSKNTLYLQMNSLRAEDTAVYYCAKVRYGWGAGAFDYWGQGTLVTVSSGGGGSGGGGSGGGGSDIQMTQSPSTLSASVGDRVTITCRASQSISSWLAWYQQKPGKAPKLLIYDASSLESGVPSRFSGSGSGTEFTLTISSLQPDDFATYYCQQYDTYPPITFGQGTKVEIK | – | – | – | – | – | – | – | > 10 | 15.5 | 0.000656 | 42400 | 0.000788 | – | – | – |
| 1H7 (scFv) (scFv, also called clone 1H7) scFv: EVQLLESGGGLVQPGGSLRLSCAASGFTFRRYAMSWVRQAPGKGLEWVSGISGSGGGTYYADSVKGRFTISRDNSKNTLYLQMNSLRAEDTAVYYCAKVRYGWGAGAFDYWGQGTLVTVSSGGGGSGGGGSGGGGSDIQMTQSPSTLSASVGDRVTITCRASQSISSWLAWYQQKPGKAPKLLIYDASSLESGVPSRFSGSGSGTEFTLTISSLQPDDFATYYCQQYDTYPPITFGQGTKVEIK | – | – | – | – | – | – | – | > 10 | 12.1 | 0.000765 | 63200 | 0.000888 | – | – | – |
| 2C7 (scFv) (scFv, also called clone 2C7) scFv: EVQLLESGGGLVQPGGSLRLSCAASGFTFKLPAMSWVRQAPGKGLEWVSAITGSGGSTYYADSVKGRFTISRDNSKNTLYLQMNSLRAEDTAVYYCAKVRYGWGAGAFDYWGQGTLVTVSSGGGGSGGGGSGGGGSDIQMTQSPSTLSASVGDRVTITCRASQSISSWLAWYQQKPGKAPKLLIYDASSLESGVPSRFSGSGSGTEFTLTISSLQPDDFATYYCQQYDTYPPITFGQGTKVEIK | – | – | – | – | – | – | – | 10 | 5.42 | 0.00041 | 75700 | 0.000501 | – | – | – |
| 2C7 (scFv_Fc form) (Fc fusion, not shown: human Fc segment of the eukaryotic expression vector V152) scFv: EVQLLESGGGLVQPGGSLRLSCAASGFTFKLPAMSWVRQAPGKGLEWVSAITGSGGSTYYADSVKGRFTISRDNSKNTLYLQMNSLRAEDTAVYYCAKVRYGWGAGAFDYWGQGTLVTVSSGGGGSGGGGSGGGGSDIQMTQSPSTLSASVGDRVTITCRASQSISSWLAWYQQKPGKAPKLLIYDASSLESGVPSRFSGSGSGTEFTLTISSLQPDDFATYYCQQYDTYPPITFGQGTKVEIK | 0.248 | 9.15e-05 | 369000 | 0.248 | 9.15e-05 | 369000 | 0.57 | – | – | – | – | – | – | – | – |
| 1D8 (scFv) (scFv, also called clone 1D8) scFv: EVQLLESGGGLVQPGGSLRLSCAASGFTFSRYAMNWVRQAPGKGLEWVSAINASGGSTYYADSVKGRFTISRDNSKNTLYLQMNSLRAEDTAVYYCAKVRYGWGAGAFDYWGQGTLVTVSSGGGGSGGGGSGGGGSDIQMTQSPSTLSASVGDRVTITCRASQSISSWLAWYQQKPGKAPKLLIYDASSLESGVPSRFSGSGSGTEFTLTISSLQPDDFATYYCQQYDTYPPITFGQGTKVEIK | – | – | – | – | – | – | – | > 10 | 13.8 | 0.000911 | 66000 | 0.00094 | – | – | – |

The next lines start with the values.

| Kd (IL-13RA2 huFc [1]) [nM] | koff (IL-13RA2 huFc [1]) [s⁻¹] | kon (IL-13RA2 huFc [1]) [M⁻¹ s⁻¹] | Kd (IL-13RA2 huFc [2]) [nM] | koff (IL-13RA2 huFc [2]) [s⁻¹] | kon (IL-13RA2 huFc [2]) [M⁻¹ s⁻¹] | EC50 [3] [nM] | fold lower dissociation constant Kd than the parent clone (IL-13RA2 huFc [4]) [times] | Kd (IL-13RA2 huFc [5]) [nM] | koff (IL-13RA2 huFc [5]) [s⁻¹] | kon (IL-13RA2 huFc [5]) [M⁻¹ s⁻¹] | koff (IL-13RA2 huFc [6]) [s⁻¹] | Kd (IL-13RA2 huFc [7]) [nM] | koff (IL-13RA2 huFc [7]) [s⁻¹] | kon (IL-13RA2 huFc [7]) [M⁻¹ s⁻¹] | Binder |
| --- | --- | --- | --- | --- | --- | --- | --- | --- | --- | --- | --- | --- | --- | --- | --- |
| 0.174 | 0.000113 | 646000 | 0.174 | 0.000113 | 646000 | 0.37 | – | – | – | – | – | – | – | – | 2D4 (scFv_Fc form) (Fc fusion, not shown: human Fc segment of the eukaryotic expression vector V152) scFv: EVQLLESGGGLVQPGGSLRLSCAASGFTFRKYAMGWVRQAPGKGLEWVSGISGSVGSTYYADSVKGRFTISRDNSKNTLYLQMNSLRAEDTAVYYCAKVRYGWGAGAFDYWGQGTLVTVSSGGGGSGGGGSGGGGSDIQMTQSPSTLSASVGDRVTITCRASQSISSWLAWYQQKPGKAPKLLIYDASSLESGVPSRFSGSGSGTEFTLTISSLQPDDFATYYCQQYDTYPPITFGQGTKVEIK |
| 0.335 | 0.000247 | 737000 | 0.335 | 0.000247 | 737000 | 0.56 | – | – | – | – | – | – | – | – | 5D7 (scFv_Fc form) (Fc fusion, not shown: human Fc segment of the eukaryotic expression vector V152) scFv: EVQLLESGGGLVQPGGSLRLSCAASGFTFSNYAMSWVRQAPGKGLEWVSGIRSSGGRTFYADSVKGRFTISRDNSKNTLYLQMNSLRAEDTAVYYCARVAFSGSFDYWGQGTLVTVSSGGGGSGGGGSGGGGSDIQMTQSPSTLSASVGDRVTITCRASQSISSWLAWYQQKPGKAPKLLIYDASSLESGVPSRFSGSGSGTEFTLTISSLQPDDFATYYCQQRNRYPPTFGQGTKVEIK |
| – | – | – | 0.194 | 0.000134 | 690000 | 0.53 | – | – | – | – | – | 0.194 | 0.000134 | 690000 | 5G3 (scFv_Fc form) (Fc fusion, not shown: human Fc segment of the eukaryotic expression vector V152) scFv: EVQLLESGGGLVQPGGSLRLSCAASGFTFSSYVLSWVRQAPGKGLEWVSAIRGSAGNTYYADSVKGRFTISRDNSKNTLYLQMNSLRAEDTAVYYCARVAFSGSFDYWGQGTLVTVSSGGGGSGGGGSGGGGSDIQMTQSPSTLSASVGDRVTITCRASQSISSWLAWYQQKPGKAPKLLIYDASSLESGVPSRFSGSGSGTEFTLTISSLQPDDFATYYCQQRNRYPPTFGQGTKVEIK |
